± gives the standard deviation of the averaged measurements.
System: ATP
Test: switch fluorescence ratio, 500 uM ATP over buffer (Cy3 cluster intensity, sum of 5 cycles each) (fold (ratio)); higher = stronger signal-on switching upon ATP binding; sequences stand for … in TCGTCGGCAGCGTCAGATGTGTATAAGAGACAGTTTTTTTTTTTTTTTTTTTTTTTTT…TC
Conditions: aptamer strand: ATP DNA aptamer (quencher-CACCTGGGGGAGTATTGCGGAGGAAGG + anchor), 100 nM annealed; ATP concentration: 500 uM
Method in brief: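 Values give the fluorescence ratio for each switch-domain sequence, averaged from per-cluster ratios of summed target-cycle to summed buffer-cycle Cy3 intensity. The Cy3-labelled switching-strand clusters sat on a modified Illumina MiSeq flow-cell, were annealed to 100 nM quencher-labelled ATP aptamer, and were imaged in selection buffer, then after 15 min with 500 uM ATP at 22 °C. Five cycles ran with NaOH stripping and re-annealing between them, and clusters outside 100-1000 RFU were excluded.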
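Note: ATP exposure 15 min at 22 °C before imaging.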

CTATTTTGAT
switch fluorescence ratio: 0.979 ± 0.024

CTATTTTTAG
switch fluorescence ratio: 0.9968 ± 0.0021

CTCAGCGGGT
switch fluorescence ratio: 1.49 ± 0.68

CTCAGGATGT
switch fluorescence ratio: 1.06 ± 0.026

CTCAGTTTTA
switch fluorescence ratio: 1.002 ± 0.0083

CTCATATGCA
switch fluorescence ratio: 1 ± 0.029

CTCATATTTA
switch fluorescence ratio: 1.01 ± 0.019

CTCATTGGGC
switch fluorescence ratio: 0.991 ± 0.027

CTCATTTGAC
switch fluorescence ratio: 1.032 ± 0.0056

CTCCAGAGGG
switch fluorescence ratio: 2.47 ± 1.8

CTCCATTGAT
switch fluorescence ratio: 1.01 ± 0.042

CTCGAGAAGA
switch fluorescence ratio: 1.01 ± 0.022

CTCGATGGGA
switch fluorescence ratio: 0.974 ± 0.061

CTCGATTGTA
switch fluorescence ratio: 0.999 ± 0.048

CTCGGCCACT
switch fluorescence ratio: 2.26 ± 1.6

CTCGGGGGTA
switch fluorescence ratio: 0.963 ± 0.031

CTCGGTTTGG
switch fluorescence ratio: 1.01 ± 0.028

CTCGTCTGAG
switch fluorescence ratio: 1 ± 0.023

CTCGTTTAGA
switch fluorescence ratio: 1.022 ± 0.0084

CTCTCTTTGA
switch fluorescence ratio: 0.963 ± 0.015

CTCTGACGGC
switch fluorescence ratio: 1.12 ± 0.12

CTCTGATGGG
switch fluorescence ratio: 0.986 ± 0.021

CTCTGGCGTT
switch fluorescence ratio: 1.51 ± 0.66

CTCTTAGGAT
switch fluorescence ratio: 1.02 ± 0.023

CTCTTGGGAA
switch fluorescence ratio: 0.992 ± 0.014

CTCTTGGGGC
switch fluorescence ratio: 0.987 ± 0.041

CTCTTGGGGT
switch fluorescence ratio: 0.997 ± 0.021

CTCTTTTGGT
switch fluorescence ratio: 0.975 ± 0.02

CTGAAAACTA
switch fluorescence ratio: 1.02 ± 0.059

CTGAAATGGT
switch fluorescence ratio: 0.9928 ± 0.0041

CTGAATTAGG
switch fluorescence ratio: 0.988 ± 0.02

CTGACGGTAG
switch fluorescence ratio: 1.03 ± 0.022

CTGACGTTTT
switch fluorescence ratio: 1.18 ± 0.2

CTGACTCGGT
switch fluorescence ratio: 1.12 ± 0.013

CTGACTTACG
switch fluorescence ratio: 1.11 ± 0.016

CTGACTTCAT
switch fluorescence ratio: 1.0521 ± 0.00045

CTGAGAGACA
switch fluorescence ratio: 0.991 ± 0.04

CTGAGAGATG
switch fluorescence ratio: 0.9914 ± 0.0072

CTGAGCTGCA
switch fluorescence ratio: 1.12 ± 0.036

CTGAGGAGGA
switch fluorescence ratio: 1.031 ± 0.0076

CTGAGGGCG
switch fluorescence ratio: 1.045 ± 0.0058

CTGAGGGGGC
switch fluorescence ratio: 1.02 ± 0.016

CTGAGGTATG
switch fluorescence ratio: 1.023 ± 0.0057

CTGATAAGCG
switch fluorescence ratio: 0.991 ± 0.039

CTGATATGTA
switch fluorescence ratio: 0.969 ± 0.045

CTGATATTGT
switch fluorescence ratio: 0.9844 ± 0.0066

CTGATGAGTT
switch fluorescence ratio: 0.982 ± 0.019

CTGATTCCTG
switch fluorescence ratio: 1.01 ± 0.04

CTGCAGCGTC
switch fluorescence ratio: 1.29 ± 0.053

CTGCGAATAA
switch fluorescence ratio: 1.4 ± 0.098

CTGCGGCTGT
switch fluorescence ratio: 1.02 ± 0.0053

CTGCGGGTGC
switch fluorescence ratio: 1.31 ± 0.2

CTGCGGTGGG
switch fluorescence ratio: 1.006 ± 0.0051

CTGCGTCGTT
switch fluorescence ratio: 0.9967 ± 0.004

CTGCTCACAC
switch fluorescence ratio: 1.22 ± 0.046

CTGCTTTGTC
switch fluorescence ratio: 0.941 ± 0.0058

CTGGACCTTC
switch fluorescence ratio: 1.66 ± 0.043

CTGGAGGGA
switch fluorescence ratio: 1 ± 0.07

CTGGAGGGAC
switch fluorescence ratio: 1.06 ± 0.026

CTGGAGTCTG
switch fluorescence ratio: 1.11 ± 0.086

CTGGATTGGG
switch fluorescence ratio: 0.98 ± 0.028

CTGGCAGGAA
switch fluorescence ratio: 1.01 ± 0.051

CTGGCTGGTT
switch fluorescence ratio: 1.01 ± 0.013

CTGGGAAGGC
switch fluorescence ratio: 1.13 ± 0.04

CTGGGACCAG
switch fluorescence ratio: 1.019 ± 0.007

CTGGGACGAT
switch fluorescence ratio: 0.998 ± 0.03

CTGGGAGAAT
switch fluorescence ratio: 1 ± 0.024

CTGGGAGGCA
switch fluorescence ratio: 0.9871 ± 0.0098

CTGGGCCGGT
switch fluorescence ratio: 1.02 ± 0.063

CTGGGCTTAG
switch fluorescence ratio: 0.982 ± 0.037

CTGGGGAAAA
switch fluorescence ratio: 1.57 ± 0.94

CTGGGGCCTA
switch fluorescence ratio: 0.982 ± 0.023

CTGGGGGCAG
switch fluorescence ratio: 1.036 ± 0.0073

CTGGGGGCTC
switch fluorescence ratio: 1.01 ± 0.018

CTGGGGGTGT
switch fluorescence ratio: 1.05 ± 0.04

CTGGGGTAGT
switch fluorescence ratio: 1.03 ± 0.022

CTGGGGTGTG
switch fluorescence ratio: 1.01 ± 0.039

CTGGGTAGGC
switch fluorescence ratio: 0.992 ± 0.018

CTGGGTATAG
switch fluorescence ratio: 1.02 ± 0.032

CTGGGTATTC
switch fluorescence ratio: 1.03 ± 0.032

CTGGGTCACA
switch fluorescence ratio: 1.02 ± 0.011

CTGGGTCGGC
switch fluorescence ratio: 0.965 ± 0.04

CTGGGTTCCT
switch fluorescence ratio: 1.02 ± 0.024

CTGGGTTGTT
switch fluorescence ratio: 1.0204 ± 0.00077

CTGGGTTTAA
switch fluorescence ratio: 1.02 ± 0.013

CTGGGTTTTT
switch fluorescence ratio: 0.992 ± 0.03

CTGGTAACCG
switch fluorescence ratio: 1 ± 0.06

CTGGTAGACT
switch fluorescence ratio: 0.992 ± 0.023

CTGGTCCGGA
switch fluorescence ratio: 0.948 ± 0.0035

CTGGTCGCGT
switch fluorescence ratio: 0.9873 ± 0.0081

CTGGTGAGGG
switch fluorescence ratio: 0.9931 ± 0.0091

CTGGTGGTTT
switch fluorescence ratio: 1.01 ± 0.0047

CTGGTGTCAC
switch fluorescence ratio: 1.01 ± 0.029

CTGGTGTTCT
switch fluorescence ratio: 1.01 ± 0.017

CTGGTTCAGG
switch fluorescence ratio: 1.026 ± 0.0082

CTGGTTCGTC
switch fluorescence ratio: 1.005 ± 0.0071

CTGGTTGGGG
switch fluorescence ratio: 1 ± 0.017

CTGGTTTTAT
switch fluorescence ratio: 0.9823 ± 0.009

CTGGTTTTCG
switch fluorescence ratio: 1 ± 0.021

CTGGTTTTTT
switch fluorescence ratio: 0.99 ± 0.01

CTGTAATGGT
switch fluorescence ratio: 1.04 ± 0.061

CTGTAGATTG
switch fluorescence ratio: 0.983 ± 0.019

CTGTATAAGT
switch fluorescence ratio: 0.985 ± 0.015

CTGTCCATCC
switch fluorescence ratio: 1.11 ± 0.035

CTGTGATGG
switch fluorescence ratio: 1.0776 ± 0.00079

CTGTGCGCCA
switch fluorescence ratio: 1.122 ± 0.0038

CTGTGGCCGG
switch fluorescence ratio: 0.967 ± 0.017

CTGTGGGCTG
switch fluorescence ratio: 0.989 ± 0.04

CTGTGGGGGG
switch fluorescence ratio: 0.9869 ± 0.0097

CTGTGGGTAG
switch fluorescence ratio: 1.03 ± 0.021

CTGTGGGTTT
switch fluorescence ratio: 1.01 ± 0.026

CTGTGTGCAC
switch fluorescence ratio: 1 ± 0.066

CTGTTCTGTG
switch fluorescence ratio: 0.951 ± 0.033

CTGTTGGAAG
switch fluorescence ratio: 0.969 ± 0.012

CTGTTGTTG
switch fluorescence ratio: 1 ± 0.01

CTGTTTACTG
switch fluorescence ratio: 0.987 ± 0.014

CTTAAATGTA
switch fluorescence ratio: 0.982 ± 0.021

CTTAATCACT
switch fluorescence ratio: 1.03 ± 0.083

CTTAATTTTT
switch fluorescence ratio: 0.98 ± 0.032

CTTACGTGTG
switch fluorescence ratio: 1.03 ± 0.034

CTTACGTTAT
switch fluorescence ratio: 1.13 ± 0.036

CTTACTCTTT
switch fluorescence ratio: 1.0258 ± 0.00043

CTTAGAAGCA
switch fluorescence ratio: 0.9943 ± 0.0017

CTTAGAAGTT
switch fluorescence ratio: 1.01 ± 0.027

CTTAGATAGT
switch fluorescence ratio: 1.01 ± 0.0098

CTTAGATATT
switch fluorescence ratio: 1.01 ± 0.045

CTTAGATGGG
switch fluorescence ratio: 0.9579 ± 0.0064

CTTAGGACAG
switch fluorescence ratio: 1.01 ± 0.035

CTTAGGGCGA
switch fluorescence ratio: 0.9728 ± 0.001

CTTAGGGGTC
switch fluorescence ratio: 0.997 ± 0.026

CTTAGGGTGT
switch fluorescence ratio: 0.964 ± 0.04

CTTAGTCGGC
switch fluorescence ratio: 0.967 ± 0.015

CTTATAATTT
switch fluorescence ratio: 0.9947 ± 0.0082

CTTATAGCAT
switch fluorescence ratio: 1.096 ± 0.0085

CTTATAGTAG
switch fluorescence ratio: 0.9847 ± 0.0066

CTTATATGAG
switch fluorescence ratio: 1.001 ± 0.0025

CTTATGAAGG
switch fluorescence ratio: 0.989 ± 0.024

CTTATGAGCA
switch fluorescence ratio: 1.038 ± 0.0023

CTTATTGGGT
switch fluorescence ratio: 0.993 ± 0.011

CTTCAATTAT
switch fluorescence ratio: 1.01 ± 0.029

CTTCAGGGGA
switch fluorescence ratio: 1.01 ± 0.061

CTTCATAGAT
switch fluorescence ratio: 1.02 ± 0.016

CTTCGCCTTT
switch fluorescence ratio: 1.06 ± 0.016

CTTCGGAGTG
switch fluorescence ratio: 1.02 ± 0.023

CTTCGGTGTG
switch fluorescence ratio: 1.04 ± 0.13

CTTCGTATGG
switch fluorescence ratio: 1 ± 0.029

CTTCTAGGGG
switch fluorescence ratio: 1.05 ± 0.011

CTTCTATGTT
switch fluorescence ratio: 0.984 ± 0.002

CTTCTGTGGG
switch fluorescence ratio: 1.027 ± 0.0036

CTTCTTAAGA
switch fluorescence ratio: 0.984 ± 0.046

CTTCTTGCTG
switch fluorescence ratio: 0.972 ± 0.011

CTTGAAAGGG
switch fluorescence ratio: 0.997 ± 0.02

CTTGAATACT
switch fluorescence ratio: 1.05 ± 0.03

CTTGACAAGG
switch fluorescence ratio: 0.982 ± 0.014

CTTGACATGT
switch fluorescence ratio: 0.976 ± 0.016

CTTGAGGGGG
switch fluorescence ratio: 1.04 ± 0.092

CTTGATGCAG
switch fluorescence ratio: 0.996 ± 0.053

Reference: the supplement of paper PMC10126150
